Results published in PMC12416549 (2024).

T1: TNFR1 (Homo sapiens, UniProt P19438)
T1 chain: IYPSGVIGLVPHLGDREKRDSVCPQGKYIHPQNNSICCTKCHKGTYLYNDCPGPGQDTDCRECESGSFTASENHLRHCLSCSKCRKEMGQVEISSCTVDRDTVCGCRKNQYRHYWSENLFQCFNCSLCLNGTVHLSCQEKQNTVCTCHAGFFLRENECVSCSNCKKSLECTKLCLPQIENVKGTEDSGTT


Target: T1, TNFR1
Assay: yeast display SC50

apparent Kd (screen) [nM] | Binder
0.446 | A90H (designed binder) SMEEEVEKAAKEYEKKKKEAIEKHLEKLKAKDKEAAERFLKELEEAAKEYAKDEAKTMSEEEAKRRAKKYKEKVLLSELSEEEQKEIKEHEEKLVRTILKYVEEAAK
0.446 | A36G (designed binder) SMEEEVEKAAKEYEKKKKEAIEKHLEKLKAKDKEAGERFLKELEEAAKEYAKDEAKTMSEEEAKRRAKKYKEKVLLSELSEEEQKEIKEAEEKLVRTILKYVEEAAK
1.54 | E61G (designed binder) SMEEEVEKAAKEYEKKKKEAIEKHLEKLKAKDKEAAERFLKELEEAAKEYAKDEAKTMSEGEAKRRAKKYKEKVLLSELSEEEQKEIKEAEEKLVRTILKYVEEAAK
0.593 | E86K (designed binder) SMEEEVEKAAKEYEKKKKEAIEKHLEKLKAKDKEAAERFLKELEEAAKEYAKDEAKTMSEEEAKRRAKKYKEKVLLSELSEEEQKKIKEAEEKLVRTILKYVEEAAK
0.49 | E86D (designed binder) SMEEEVEKAAKEYEKKKKEAIEKHLEKLKAKDKEAAERFLKELEEAAKEYAKDEAKTMSEEEAKRRAKKYKEKVLLSELSEEEQKDIKEAEEKLVRTILKYVEEAAK
20.2 | E49I (designed binder) SMEEEVEKAAKEYEKKKKEAIEKHLEKLKAKDKEAAERFLKELEEAAKIYAKDEAKTMSEEEAKRRAKKYKEKVLLSELSEEEQKEIKEAEEKLVRTILKYVEEAAK
0.79 | D53N (designed binder) SMEEEVEKAAKEYEKKKKEAIEKHLEKLKAKDKEAAERFLKELEEAAKEYAKNEAKTMSEEEAKRRAKKYKEKVLLSELSEEEQKEIKEAEEKLVRTILKYVEEAAK
0.539 | K85A (designed binder) SMEEEVEKAAKEYEKKKKEAIEKHLEKLKAKDKEAAERFLKELEEAAKEYAKDEAKTMSEEEAKRRAKKYKEKVLLSELSEEEQAEIKEAEEKLVRTILKYVEEAAK
22.2 | M58D (designed binder) SMEEEVEKAAKEYEKKKKEAIEKHLEKLKAKDKEAAERFLKELEEAAKEYAKDEAKTDSEEEAKRRAKKYKEKVLLSELSEEEQKEIKEAEEKLVRTILKYVEEAAK
1.86 | T97A (designed binder) SMEEEVEKAAKEYEKKKKEAIEKHLEKLKAKDKEAAERFLKELEEAAKEYAKDEAKTMSEEEAKRRAKKYKEKVLLSELSEEEQKEIKEAEEKLVRAILKYVEEAAK
29.5 | E14F (designed binder) SMEEEVEKAAKEYFKKKKEAIEKHLEKLKAKDKEAAERFLKELEEAAKEYAKDEAKTMSEEEAKRRAKKYKEKVLLSELSEEEQKEIKEAEEKLVRTILKYVEEAAK
1.69 | E61L (designed binder) SMEEEVEKAAKEYEKKKKEAIEKHLEKLKAKDKEAAERFLKELEEAAKEYAKDEAKTMSELEAKRRAKKYKEKVLLSELSEEEQKEIKEAEEKLVRTILKYVEEAAK
1.4 | E89A (designed binder) SMEEEVEKAAKEYEKKKKEAIEKHLEKLKAKDKEAAERFLKELEEAAKEYAKDEAKTMSEEEAKRRAKKYKEKVLLSELSEEEQKEIKAAEEKLVRTILKYVEEAAK
0.79 | K27A (designed binder) SMEEEVEKAAKEYEKKKKEAIEKHLEALKAKDKEAAERFLKELEEAAKEYAKDEAKTMSEEEAKRRAKKYKEKVLLSELSEEEQKEIKEAEEKLVRTILKYVEEAAK
0.653 | E86A (designed binder) SMEEEVEKAAKEYEKKKKEAIEKHLEKLKAKDKEAAERFLKELEEAAKEYAKDEAKTMSEEEAKRRAKKYKEKVLLSELSEEEQKAIKEAEEKLVRTILKYVEEAAK
8.56 | A55G (designed binder) SMEEEVEKAAKEYEKKKKEAIEKHLEKLKAKDKEAAERFLKELEEAAKEYAKDEGKTMSEEEAKRRAKKYKEKVLLSELSEEEQKEIKEAEEKLVRTILKYVEEAAK
2.73 | D53C (designed binder) SMEEEVEKAAKEYEKKKKEAIEKHLEKLKAKDKEAAERFLKELEEAAKEYAKCEAKTMSEEEAKRRAKKYKEKVLLSELSEEEQKEIKEAEEKLVRTILKYVEEAAK
3 | A46I (designed binder) SMEEEVEKAAKEYEKKKKEAIEKHLEKLKAKDKEAAERFLKELEEIAKEYAKDEAKTMSEEEAKRRAKKYKEKVLLSELSEEEQKEIKEAEEKLVRTILKYVEEAAK

apparent Kd (screen) [nM] | Binder
0.446 | L43Q (designed binder) SMEEEVEKAAKEYEKKKKEAIEKHLEKLKAKDKEAAERFLKEQEEAAKEYAKDEAKTMSEEEAKRRAKKYKEKVLLSELSEEEQKEIKEAEEKLVRTILKYVEEAAK
0.869 | A30H (designed binder) SMEEEVEKAAKEYEKKKKEAIEKHLEKLKHKDKEAAERFLKELEEAAKEYAKDEAKTMSEEEAKRRAKKYKEKVLLSELSEEEQKEIKEAEEKLVRTILKYVEEAAK
0.869 | K100Y (designed binder) SMEEEVEKAAKEYEKKKKEAIEKHLEKLKAKDKEAAERFLKELEEAAKEYAKDEAKTMSEEEAKRRAKKYKEKVLLSELSEEEQKEIKEAEEKLVRTILYYVEEAAK
0.956 | A9L (designed binder) SMEEEVEKLAKEYEKKKKEAIEKHLEKLKAKDKEAAERFLKELEEAAKEYAKDEAKTMSEEEAKRRAKKYKEKVLLSELSEEEQKEIKEAEEKLVRTILKYVEEAAK
0.49 | E103P (designed binder) SMEEEVEKAAKEYEKKKKEAIEKHLEKLKAKDKEAAERFLKELEEAAKEYAKDEAKTMSEEEAKRRAKKYKEKVLLSELSEEEQKEIKEAEEKLVRTILKYVPEAAK
5.84 | A46E (designed binder) SMEEEVEKAAKEYEKKKKEAIEKHLEKLKAKDKEAAERFLKELEEEAKEYAKDEAKTMSEEEAKRRAKKYKEKVLLSELSEEEQKEIKEAEEKLVRTILKYVEEAAK
1.4 | L43G (designed binder) SMEEEVEKAAKEYEKKKKEAIEKHLEKLKAKDKEAAERFLKEGEEAAKEYAKDEAKTMSEEEAKRRAKKYKEKVLLSELSEEEQKEIKEAEEKLVRTILKYVEEAAK
0.49 | A47Y (designed binder) SMEEEVEKAAKEYEKKKKEAIEKHLEKLKAKDKEAAERFLKELEEAYKEYAKDEAKTMSEEEAKRRAKKYKEKVLLSELSEEEQKEIKEAEEKLVRTILKYVEEAAK
1.05 | E92N (designed binder) SMEEEVEKAAKEYEKKKKEAIEKHLEKLKAKDKEAAERFLKELEEAAKEYAKDEAKTMSEEEAKRRAKKYKEKVLLSELSEEEQKEIKEAENKLVRTILKYVEEAAK
0.593 | E81I (designed binder) SMEEEVEKAAKEYEKKKKEAIEKHLEKLKAKDKEAAERFLKELEEAAKEYAKDEAKTMSEEEAKRRAKKYKEKVLLSELSIEEQKEIKEAEEKLVRTILKYVEEAAK
0.49 | L75C (designed binder) SMEEEVEKAAKEYEKKKKEAIEKHLEKLKAKDKEAAERFLKELEEAAKEYAKDEAKTMSEEEAKRRAKKYKEKVCLSELSEEEQKEIKEAEEKLVRTILKYVEEAAK
1.05 | K18Y (designed binder) SMEEEVEKAAKEYEKKKYEAIEKHLEKLKAKDKEAAERFLKELEEAAKEYAKDEAKTMSEEEAKRRAKKYKEKVLLSELSEEEQKEIKEAEEKLVRTILKYVEEAAK
0.49 | K48N (designed binder) SMEEEVEKAAKEYEKKKKEAIEKHLEKLKAKDKEAAERFLKELEEAANEYAKDEAKTMSEEEAKRRAKKYKEKVLLSELSEEEQKEIKEAEEKLVRTILKYVEEAAK
0.446 | K23E (designed binder) SMEEEVEKAAKEYEKKKKEAIEEHLEKLKAKDKEAAERFLKELEEAAKEYAKDEAKTMSEEEAKRRAKKYKEKVLLSELSEEEQKEIKEAEEKLVRTILKYVEEAAK
0.49 | E62N (designed binder) SMEEEVEKAAKEYEKKKKEAIEKHLEKLKAKDKEAAERFLKELEEAAKEYAKDEAKTMSEENAKRRAKKYKEKVLLSELSEEEQKEIKEAEEKLVRTILKYVEEAAK
2.73 | S80F (designed binder) SMEEEVEKAAKEYEKKKKEAIEKHLEKLKAKDKEAAERFLKELEEAAKEYAKDEAKTMSEEEAKRRAKKYKEKVLLSELFEEEQKEIKEAEEKLVRTILKYVEEAAK
0.446 | A47M (designed binder) SMEEEVEKAAKEYEKKKKEAIEKHLEKLKAKDKEAAERFLKELEEAMKEYAKDEAKTMSEEEAKRRAKKYKEKVLLSELSEEEQKEIKEAEEKLVRTILKYVEEAAK
